In publication PMC8199477:

Target: urate oxidase from Deinococcus radiodurans (DrUox) (Deinococcus radiodurans R1)
Assay: SEC; Superdex 200 (10/300) GL, 20 mM Tris-HCl pH 8.0, 100 mM NaCl, 0.5 mL/min; size by interpolation against protein markers

stoichiometry N: 4
Substance: urate oxidase from Deinococcus radiodurans (DrUox) (enzyme)
